Data on one molecule can be found in patent US20170369569A1 (KAO, published 2017).

Ends that are not written are not given here.

Assay [1] concerns the target T1, GIP(1-8) synthetic peptide.
T1 peptide: H-YAEGTFIS-OH
In words: direct ELISA on immobilized peptide (1 µg/mL), biotinylated antibody, peroxidase-streptavidin. Here is the method:
(§1) The synthesized 6 peptides were each diluted to 1 μg/mL with PBS(−) and immobilized onto 96-well plates. ELISA was conducted using the biotinylated anti-active GIP monoclonal antibody and a peroxidase-streptavidin conjugate for detection.
Background: ELISA stands for enzyme-linked immunosorbent assay.

The target in assay [2] is T2, GIP (1-9) synthetic peptide.
T2 peptide: H-YAEGTFISD-OH
The description is as above. On the procedure: as §1

For assay [3], the target named is T3, GIP (1-10) synthetic peptide.
T3 construct: Free NH2 and COOH termini as printed
T3 peptide: H-YAEGTFISDY-OH
The description is as above. On the procedure: as §1

The target in another assay is T4, active GIP, GIP(1-42) (human).
T4 construct: also called human active GIP
T4 peptide: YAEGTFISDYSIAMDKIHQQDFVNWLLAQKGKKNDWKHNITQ
In words: sandwich ELISA, anti-total GIP capture antibody, biotinylated anti-active GIP antibody (1 µg/mL) as detection, GIP 8.2 to 2000 pg/mL. On the procedure:
(§2) The reactivity of the monoclonal antibody obtained in Example 1 with active GIP was confirmed by ELISA. The amino group of the anti-active GIP monoclonal antibody was biotinylated using a NH₂ group biotinylation kit (manufactured by Dojindo Laboratories). ELISA was conducted using 1 μg/mL prepared biotinylated anti-active GIP monoclonal antibody instead of a detection antibody ‘GIP detection antibody’ (biotinylated anti-total GIP monoclonal antibody) included in Human (total) GIP ELISA kit (manufactured by Merck Millipore). Six 4-fold serial dilutions (8.2 to 2000 pg/mL) were prepared with a 2000 pg/mL solution of GIP(1-42) or GIP(3-42) as the highest concentration. The capture antibody used was an anti-total GIP monoclonal antibody (included in the Human GIP (total) ELISA kit manufactured by Merck Millipore). The detection antibody used was the biotinylated anti-active GIP monoclonal antibody. A sandwich ELISA system containing a peroxidase-streptavidin conjugate was used in detection. GIP concentrations were plotted on the X axis against absorbance of 450 nm to 590 nm on the Y axis to prepare a calibration curve (FIG. 1).

Assay [4] has as its target T5, GIP(1-6)+GIP nonspecific 4aa (random 4aa) synthetic peptide.
T5 construct: also called GIP(1-6)+random 4aa
T5 peptide: H-YAEGTFVNLV-OH
The assay is described as follows: direct ELISA on immobilized peptide, biotinylated antibody, peroxidase-streptavidin. On the procedure: as §1

Assay [5] addresses T6, GIP(1-7) synthetic peptide.
T6 peptide: H-YAEGTFI-OH
The description is as above. On the procedure:
as §1

The target of assay [6] is T7, GIP(1-6) synthetic peptide.
T7 peptide: H-YAEGTF-OH
The description is as above. On the procedure: as §1

Assay [7] deals with T8, PEGylated N-terminal 13 amino acids of nonactive GIP (GIP(3-15)), antigen (2) for measurement (human, also: PEGylated, site not given here).
T8 construct: also called PEGylated GIP(3-15)
T8 peptide: EGTFISDYSIAMD
In words: ELISA on immobilized antigen, hybridoma culture supernatant, HRP-labeled anti-mouse Ig secondary antibody. On the procedure:
(§3) The antigens (1) and (2) for measurement were each diluted to 1 μg/mL with PBS(−) and immobilized onto plates.

For assay [8], the target named is T9, PEGylated N-terminal 15 amino acids of active GIP (GIP(1-15)), antigen (1) for measurement (human, also: PEGylated, site not given here).
T9 construct: also called PEGylated GIP(1-15)
T9 peptide: YAEGTFISDYSIAMD
The assay is described as follows: ELISA on immobilized antigen (1 µg/mL), hybridoma culture supernatant, HRP-labeled anti-mouse Ig secondary antibody. On the procedure: as §3

The target of the next assay is T10, nonactive GIP, GIP(3-42) (human).
T10 peptide: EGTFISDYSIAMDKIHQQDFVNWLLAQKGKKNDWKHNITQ
In words: sandwich ELISA, anti-total GIP capture antibody, biotinylated anti-active GIP antibody (1 µg/mL) as detection. Here is the method: as §2

B1: anti-active GIP monoclonal antibody produced from hybridoma 9B9H5-B9 line (antibody, V domains shown)
VH: QVQLQQPGAELVKPGASVKLSCKASGYTFTSFWMHWVIQRPGQGLEWIGEMNPSDGRTHFNEKFKTKATLTIDTSSNTAYMELNSLTSEDSAVYYCARRMEDWGQGTLVTVSA
VL: DIKMTQSPSSMYASLGERVTITCKASQDINSYLGWFQQKPGKSPKTLIYGANRLVDGVPSRFSGSGSGQDYSLTISSLEYDDMGIYYCLQYDEFPLTFGAGTKLELKR
notes: Mouse (BALB/c) hybridoma monoclonal antibody, purified on protein A. It was amplified with a mouse IgG H chain-specific primer; also called biotinylated anti-active GIP monoclonal antibody; anti-active GIP antibody of the present invention
Consider B1, for which the binding result in assay [1] is listed as “binds”; in [2], “binds”; in [3] it was “binds”; with active GIP, GIP(1-42) it was “binds”; in assay [4], “no binding (tested: peptide coated at 1 µg/mL)”; in assay [5] it was “no binding (tested: peptide coated at 1 µg/mL)”. The binding result is “no binding (tested: peptide coated at 1 µg/mL)” in [6]; “no binding (tested: antigen coated at 1 µg/mL)” in assay [7]; “binds” in assay [8]; “no binding (tested: 8.2 to 2000 pg/mL)” with nonactive GIP, GIP(3-42).
